# Assay results taken from patent CN113117073A.
# What was measured:
# [1] = biological target: PD-L1 (antigen of the indirect ELISA for titre; not specified); assay: indirect ELISA, ascites antibody
# 人PD-L1-His (human) = 人PD-L1-His (human) (UniProt Q9NZQ7); assay: SPR; PD-L1-His captured by anti-His antibody on a CM5 chip, antibody as analyte 0-1000 nmol/L, 1:1 binding fit
# Sequence of PD-L1 (antigen of the indirect ELISA for titre; not specified) (Q9NZQ7 whole entry): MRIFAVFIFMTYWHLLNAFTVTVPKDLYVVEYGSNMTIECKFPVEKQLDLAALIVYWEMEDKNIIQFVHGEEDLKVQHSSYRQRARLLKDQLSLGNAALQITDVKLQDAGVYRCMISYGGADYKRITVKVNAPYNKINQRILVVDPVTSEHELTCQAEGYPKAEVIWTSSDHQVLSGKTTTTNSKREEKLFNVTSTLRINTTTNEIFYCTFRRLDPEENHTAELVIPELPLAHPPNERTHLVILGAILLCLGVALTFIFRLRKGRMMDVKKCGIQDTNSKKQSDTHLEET
binder,measurement,setting,value
"PD-L1单克隆抗体 1A7 (antibody, part only; not given: light chain variable domain, V domains shown, part only) VH: EVKLVESGGGLVKPGGSLKLSCAASGFTFSQTTMAWVRQIPEKRLEWVASIEEGGSCCFPDSALSRFTISRDNARNICYLQMNSLRSDDTAMYYCARAREACAGYFARWGQGTTLTVSS",腹水效价 (ascites titre) (titre (1:x dilution)),[1],2.56e+06
same,Kd,人PD-L1-His (human),4.19 nM
